According to the supplement of paper PMC7125110:
± gives the standard error. Fewer inactive variants are shown than the library holds.

B1: glmS ribozyme (parent)
chain: AUAAAAGCGCCAGAACUACAGAAAUGUAGUUGACGAGGAGGAGGUUUAUCGAAUUUUCGGCGGAUGCCUCCAAA

Variants of: B1
Experiment: self-cleavage kobs at 2500 uM GlcN6P; higher = faster cleavage; RNA array
Conditions: with glucosamine-6-phosphate
Procedure, shortened: (§1)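 Glucosamine-6-phosphate (40 μM to 10 mM) in HEPES/KCl/Mg(OAc)2 buffer was flowed over sequenced MiSeq chips, and tiles were imaged over ~14 h. Barcoded ribozyme variants there had been transcribed in situ by E. coli RNA polymerase and were tracked through a hybridised Cy3 probe at 37 °C. One- or two-exponential decay fits to per-tile medians, normalised to baseline and to non-cleaving reference variants, gave kobs. kcat and KM came from weighted Michaelis–Menten fits across concentrations.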

Row | Variant | self-cleavage kobs at 2500 uM GlcN6P
1 | AUAAAAGCGCCAGAUCUACAGAAAUGUAGUUGACCAGUAGGAGGUUGAUCGAAUUUUCGGCGGAUGCCGCCAAA | < 1e-05 s⁻¹
2 | AUAAAAGCGCCAGAACUACAGAAAUGUAGUUGACCUGGAGCAGGUUUAUCUAAUUUUCGGCGGAGGCCUCCAAA | < 1e-05 s⁻¹
3 | AUAAAUGCGCCAGAACUACAGAAAUGUAGUUGACGAGCAGGAGGUUAGUCGAAUUUUCGGCGGAUACCGCCAAA | < 1e-05 s⁻¹
4 | AUAAAAGUGACAGACCUACAGAAAUGUAGUUGACGAGGAGGAGGUUUAUCGAAUUUUCGGCGGAUGCCUCCAAA | < 1e-05 s⁻¹
5 | AUAAAAGCGCCAGGACUACAGAAAUGUAAUUGACGUGGAGGAGGUUUAUCGAAUUUUCGGCGGAUGCCUCCAAA | < 1e-05 s⁻¹
6 | AUAAAAGCGCCAGAACUACAGAAAUGUAGUUGACGAGGAUGAGGUUUAUAGAAUCUUCGGCGGAUGCCUCCAAA | < 1e-05 s⁻¹
7 | AUAAAAGUGCCAGAACUACAGAAAUGUAGUUGACGAUGCGGAGGUUUAUCGAAUUUUCGGCGGAUGCCUCCAAA | < 1e-05 s⁻¹
8 | AUAAAAGGGCCAGCACUACAGAAAUGUAGUUGACGAGGAGGAGGUUUAUCGAAUUUUCGGCGGAUGCCUCGAAA | < 1e-05 s⁻¹
9 | AUAAAAGCGCCAGAAUUACAGAAAUGUAGUUGAAGCGGAGGAGGUUUAUCGAAUUUUAGGCGGAUGCCUCCAAA | < 1e-05 s⁻¹
10 | AUAAAAGCGCCAGAACUACAGAAAUGUACUUGACGUGGAGGAGGUUUAUCGGAUUUUCGGCGGAUGCCUCCAAA | < 1e-05 s⁻¹
11 | AUAAAAGCGCCAGAACUACAGAAAUGUAGUUGACGAGGAGGAGGUUUAUCGAAUUGUCGUCGCAUGCCUCCAAA | < 1e-05 s⁻¹
12 | AUAAAAGCGCCAGAACUACAGAAAUGUAGUUGACGAGGAGGAGGUAUAUCGGAUUUUCGGCUGAUGCCUUCAAA | < 1e-05 s⁻¹
13 | AUAAAAUCACCAGAACUACAGAAAUGUAAUUGACGAGGGGGAGGUUUAUCGAAUUUUCGGCGGAUGCCUCCAAA | < 1e-05 s⁻¹
14 | AUAAAAGCGCCAAAACUACAGAAAUGUAGUUUACGAGGAGGAGGUUUAUCGAAUUUUCGGCGGAUGACUCCAAA | 3.47e-05 ± 1.3e-05 s⁻¹
15 | AUAAAAGCGACAGAACUACAGAAAUGUAGUUGUCGAGGAGGAGGUUUUUCGAAUUUUCGGCGGAUGCCUCCAAA | < 1e-05 s⁻¹
16 | AUAAAAGCGCCUGAACUACAGAAAUGUAGUUGACGAGGUGGAGGUUUAUCGAAUUUUCGGCGAAUGCCUCCAAA | < 1e-05 s⁻¹
17 | AUAAAAGCGCCAGAACUACAGAAAUGUAGUUGACGAUGAGGAGCUUUAUCGAAUUUCCGGCGGAUGACUCCAAA | < 1e-05 s⁻¹

Row | Variant | self-cleavage kobs at 2500 uM GlcN6P
18 | AUAAAAGCGCGAGAACUACAGAAAUGUAGUUGACCAGGAGGAGGGUUAUCGAAUUUUCGGCGGAUGACUCCAAA | < 1e-05 s⁻¹
19 | AUAAAAGCGCCAGAACUACAGAAAUGUAGUCGACGAGGAGGUGGUUUAUCGCAUUUUCGGCGGAUGCCUCAAAA | < 1e-05 s⁻¹
20 | AUAAAAGCGUCAGAACUACAGAAAUGUAUUUGACGAGAAGGAGGUUUAUCGAAUUUUCGGCGGAUGCCUCCAAA | 0.00158 ± 0.0007 s⁻¹
21 | AUAAAAGCGCCAGAACUACAGAAAUGUAGUUUACGUCGAGGAGGUUGAUCGCAUUUUCGGCGGAUGGCUCCAAA | < 1e-05 s⁻¹
22 | AUAAAAGCGCCAGAAUUACAGAAAUGUAGUUGACGCGGAGGAGGUUUAUCGCAUUUUCGGAGGAUGCCUCCAAA | < 1e-05 s⁻¹
23 | AUAAAAGCGCCAGAACUACAGAAAUGUAGUUGACCGGGAUGAGGUUUAUCGAAUUUUCGGCGGAUGCCUUCAAA | < 1e-05 s⁻¹
24 | AUAAAAGUGCCAGAACUACAGAAAUGUAGUUGCCGAGGAGGAGGUUUAUCGAAUUUUGGGCGGAUGCCUCCAAA | < 1e-05 s⁻¹
25 | AUAAAUGCGCCAGAACUACAGAAAUGUAGUUGACGAGGAGGAAGUUUAUCCAAUUUUCGGCGGAUGCCUCCAAA | < 1e-05 s⁻¹
26 | AUAAAAGUGCCAGAACUACAGAAAUGUAGUUGACGGGGAGGAGGUUUAUAAAAUUUUCGGCGGAUGCUUACAAA | 0.000112 ± 4.4e-05 s⁻¹
27 | AUAAAUGCGGCAGAACUACAGAAAUGUAGUUGACGAGGAGGAGGUUUAUGGGAUAUUCGGCGGAUGCAUCCAAA | 0.000313 ± 7.4e-05 s⁻¹
28 | AUAAAAGCGCCAGAACUACAGAAAUGUAGUUGAUGAGGAGGAGGUUUAUCGAAUUUUCGGCGGAUGCUUCCAAA | < 1e-05 s⁻¹
29 | AUAAAAGCGCGAGAACUACAGAAAUGUAGUUGACGAGGAGUAGGUUUAUCGAAUUUACGGCGGAUGCCUCCAAA | < 1e-05 s⁻¹
30 | AUAAAAGCGCCAGAACUACAGAAAUGUAGUUGACGAGGAGGAGGUUUAUGGAAUUUUCGGCGGAUGCGUUCAAA | 7.27e-05 ± 1.1e-05 s⁻¹
31 | AUAAAAGGGCCAGAACUACAGAAAUGUAGUUGACGAGGAGGGGGUUUAUCGUAUUUUCGGCGGAUGCCUCCAAA | < 1e-05 s⁻¹
32 | AUAAAAGCGCCAGAACUACAGAAAUGUAGUUUACGAGGAGGUGGUUUAUCGAAUUUUCGGCGGAUGCAUCCAAA | < 1e-05 s⁻¹
33 | AUAAAGGCGCCCGAAUUACAGAAAUGUAGUUGACGAGGAGGAGGUUUAUCGAAUUUUCGGCGGAUGCCUCCAAA | 0.000167 ± 3.6e-05 s⁻¹
34 | AUAAAAGCGCCAGACCUACAGAAAUGUAGUUGACCAGGAGGAGGUUUAUCGAAUUUUCGGCGGAUGCCCCCAAA | < 1e-05 s⁻¹

Variants of: B1
Experiment: self-cleavage kobs at 10000 uM GlcN6P; higher = faster cleavage; RNA array
Conditions: with glucosamine-6-phosphate
Procedure, shortened: as §1

Row | Variant | self-cleavage kobs at 10000 uM GlcN6P
35 | AUAAAAGCGCCAGAUCUACAGAAAUGUAGUUGACCAGUAGGAGGUUGAUCGAAUUUUCGGCGGAUGCCGCCAAA | 0.000954 ± 0.0003 s⁻¹
36 | AUAAAAGCGCCAGAACUACAGAAAUGUAGUUGACCUGGAGCAGGUUUAUCUAAUUUUCGGCGGAGGCCUCCAAA | < 1e-05 s⁻¹
37 | AUAAAUGCGCCAGAACUACAGAAAUGUAGUUGACGAGCAGGAGGUUAGUCGAAUUUUCGGCGGAUACCGCCAAA | < 1e-05 s⁻¹
